Substitutions are numbered along the chain they refer to.

The target in assay [1] is T1, Recombinant Human TNF-α/TNFSF1A (human, UniProt P01375 77-233). Nature of the assay: cell-based or functional assay.
Assay [2] deals with T1, Recombinant Human TNF-α/TNFSF1A. Nature of the assay: SPR (Biacore), antibody captured, TNF-α in solution. How it is done: The BIACORE assay (Biacore, Inc. Piscataway, N.J.) determines the affinity of antibodies with kinetic measurements of on-rate and off-rate constants. Binding of antibodies to a target antigen (for example, a purified recombinant target antigen) is determined by surface plasmon resonance-based measurements with a Biacore® 1000 or 3000 instrument (Biacore® AB, Uppsala, Sweden) using running HBS-EP (10 mM HEPES [pH 7.4], 150 mM NaCl, 3 mM EDTA, and 0.005% surfactant P20) at 25° C. All chemicals are obtained from Biacore® AB (Uppsala, Sweden) or otherwise from a different source as described in the text. For example, approximately 5000 RU of goat anti-mouse IgG, (Fcγ), fragment specific polyclonal antibody (Pierce Biotechnology Inc, Rockford, Ill., US) diluted in 10 mM sodium acetate (pH 4.5) is directly immobilized across a CM5 research grade biosensor chip using a standard amine coupling kit according to manufacturer's instructions and procedures at 25 μg/ml. Unreacted moieties on the biosensor surface are blocked with ethanolamine. Modified carboxymethyl dextran surface in flowcell 2 and 4 is used as a reaction surface. Unmodified carboxymethyl dextran without goat anti-mouse IgG in flow cell 1 and 3 is used as the reference surface. For kinetic analysis, rate equations derived from the 1:1 Langmuir binding model are fitted simultaneously to association and dissociation phases of all eight injections (using global fit analysis) with the use of Biaevaluation 4.0.1 software. Purified antibodies are diluted in HEPES-buffered saline for capture across goat anti-mouse IgG specific reaction surfaces. Antibodies to be captured as a ligand (25 μg/ml) are injected over reaction matrices at a flow rate of 5 μl/minute. The association and dissociation rate constants, kₒₙ (M⁻¹s⁻¹) and koff (s⁻¹), are determined under a continuous flow rate of 25 μl/minute. Rate constants are derived by making kinetic binding measurements at different antigen concentrations ranging from 10-200 nM. The equilibrium dissociation constant (M) of the reaction between antibodies and the target antigen is then calculated from the kinetic rate constants by the following formula: KD=koff/kₒₙ. Binding is recorded as a function of time and kinetic rate constants are calculated. In this assay, on-rates as fast as 10⁶ M⁻¹s⁻¹ and off-rates as slow as 10⁻⁶ s⁻¹ can be measured.

T1 sequence (P01375 77-233 limits assumed): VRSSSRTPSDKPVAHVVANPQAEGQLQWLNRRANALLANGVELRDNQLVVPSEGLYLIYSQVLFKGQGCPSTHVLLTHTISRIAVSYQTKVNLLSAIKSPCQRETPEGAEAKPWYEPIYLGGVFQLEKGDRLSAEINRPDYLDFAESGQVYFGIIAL

B1: AB248 (antibody, V domains shown)
VH: EVQLQESGPGLVKPSETLSLTCTVSGFSLSDYGVNWIRQPPGKGLEWIGMIWGDGSTDYDSTLKSRVTISKDTSKNQFSLKLSSVTAADTAVYYCAREWHHGPVAYWGQGTLVTVSS
VL: DIQMTQSPSSLSASVGDRVTITCKASQAVSSAVAWYQQKPGKAPKLLIYWASTRHTGVPSRFSGSGSGTDFTLTISSLQPEDFATYYCQQHYSTPFTFGQGTKLEIK
notes: also called hMAK195VH.1b / hMAK195VL.1
Turning to B1, in assay [1], the “TNF-α neutralization assay IC50 (nM), L929 cells” value (“TNF-α neutralization assay IC50” below) amounted to 0.213 nM. For the same molecule, in assay [2], the Kd stood at 0.174 nM, the koff was 0.000316 s⁻¹ and the kon was 1.82e+06 M⁻¹ s⁻¹.

B2: AB260 (antibody, V domains shown)
VH: EVQLVESGGGLVQPGGSLRLSCAASGFTLSDYGVNWVRQAPGKGLEWVSMIWGDGSTDYDSTLKSRFTISKDNSKNTLYLQMNSLRAEDTAVYYCAREWHHGPVAYWGQGTLVTVSS
VL: B1 VL
notes: also called hMAK195VH.2b / hMAK195VL.1
On to B2, for which, in assay [1], the “TNF-α neutralization assay IC50” value is 0.093 nM. For the same molecule, in assay [2], the Kd was determined as 0.101 nM, the off-rate (koff) was 0.00023 s⁻¹ and the kon is 2.27e+06 M⁻¹ s⁻¹.

B3: AB250 (antibody, V domains shown)
VH: B1 VH
VL: EIVMTQSPATLSLSPGERATLSCKASQAVSSAVAWYQQKPGQAPRLLIYWASTRHTGIPARFSGSGSGTDFTLTISSLQPEDFAVYYCQQHYSTPFTFGQGTKLEIK
notes: also called hMAK195VH.1b / hMAK195VL.2
Consider B3, for which the “TNF-α neutralization assay IC50” value in assay [1] was found to be 0.301 nM. In addition, in assay [2], the dissociation constant (Kd) is 0.179 nM, the koff was found to be 0.000356 s⁻¹ and the association rate constant (kon) came out at 2e+06 M⁻¹ s⁻¹.

B4: AB246 (antibody, V domains shown)
VH: B1 VH with I37V, I48L, V67L, T73N, N76S, F78I
VL: B3 VL
notes: also called hMAK195VH.1a / hMAK195VL.2
B4: the “TNF-α neutralization assay IC50” value in assay [1] was determined as 0.099 nM. Besides, in assay [2], the Kd stood at 0.0458 nM, the koff was found to be 0.000119 s⁻¹ and the kon worked out at 2.61e+06 M⁻¹ s⁻¹.

B5: AB251 (antibody, V domains shown)
VH: B1 VH
VL: B3 VL with A43S, I58V
notes: also called hMAK195VH.1b / hMAK195VL.2a
Take B5: the “TNF-α neutralization assay IC50” value in assay [1] came to 0.35 nM. In addition, in assay [2], the Kd was found to be 0.25 nM, the koff was 0.000425 s⁻¹ and the kon stood at 1.71e+06 M⁻¹ s⁻¹.

B6: AB261 (antibody, V domains shown)
VH: B2 VH
VL: B1 VL with A43S
notes: also called hMAK195VH.2b / hMAK195VL.1a
In the case of B6, the “TNF-α neutralization assay IC50” value in assay [1] turned out to be 0.187 nM. For the same molecule, in assay [2], the equilibrium dissociation constant (Kd) is 0.122 nM, the koff is 0.000285 s⁻¹ and the kon was 2.36e+06 M⁻¹ s⁻¹.

B7: AB244 (antibody, V domains shown)
VH: B1 VH with I37V, I48L, V67L, T73N, N76S, F78I
VL: B1 VL
notes: also called hMAK195VH.1a / hMAK195VL.1
In the case of B7, the “TNF-α neutralization assay IC50” value in assay [1] was 0.155 nM. In addition, in assay [2], the Kd was determined as 0.0891 nM, the koff was 0.000335 s⁻¹ and the kon stood at 3.8e+06 M⁻¹ s⁻¹.

B8: AB249 (antibody, V domains shown)
VH: B1 VH
VL: B1 VL with A43S
notes: also called A3249; hMAK195VH.1b / hMAK195VL.1a
For the molecule B8, the “TNF-α neutralization assay IC50” value in assay [1] amounted to 0.245 nM. In addition, in assay [2], the Kd is 0.156 nM, the koff stood at 0.000315 s⁻¹ and the kon amounted to 2.04e+06 M⁻¹ s⁻¹.

B9: AB240 (antibody, V domains shown)
VH: B1 VH with F27G, L29I, K71V
VL: B1 VL
notes: also called hMAK195VH.1 / hMAK195VL.1
As for B9, in assay [1], the “TNF-α neutralization assay IC50” value is 14.2 nM. Also, in assay [2], the Kd worked out at 1.4 nM, the koff is 0.00228 s⁻¹ and the kon was found to be 1.64e+06 M⁻¹ s⁻¹.

B10: AB245 (antibody, V domains shown)
VH: B1 VH with I37V, I48L, V67L, T73N, N76S, F78I
VL: B1 VL with A43S
notes: also called hMAK195VH.1a / hMAK195VL.1a
Consider B10, for which the “TNF-α neutralization assay IC50” value in assay [1] stood at 0.072 nM. In assay [2], the Kd is 0.0994 nM, the koff was 0.00033 s⁻¹ and the kon was 3.32e+06 M⁻¹ s⁻¹.

B11: AB257 (antibody, V domains shown)
VH: B2 VH with A24V, V48L, S49G, F67L, N76S, L78I
VL: B1 VL with A43S
notes: also called hMAK195VH.2a / hMAK195VL.1a
As to B11, in assay [1], the “TNF-α neutralization assay IC50” value stood at 0.077 nM. In assay [2], the Kd amounted to 0.062 nM, the koff was determined as 0.000217 s⁻¹ and the kon was 3.56e+06 M⁻¹ s⁻¹.

B12: AB252 (antibody, V domains shown)
VH: B2 VH with L29F, K71R
VL: B1 VL
notes: also called hMAK195VH.2 / hMAK195VL.1
For the molecule B12, in assay [1], the “TNF-α neutralization assay IC50” value turned out to be 0.222 nM. In addition, in assay [2], the Kd is 0.0866 nM, the koff came to 0.000252 s⁻¹ and the kon amounted to 2.92e+06 M⁻¹ s⁻¹.

B13: AB256 (antibody, V domains shown)
VH: B2 VH with A24V, V48L, S49G, F67L, N76S, L78I
VL: B1 VL
notes: also called hMAK195VH.2a / hMAK195VL.1
Consider B13, for which the “TNF-α neutralization assay IC50” value in assay [1] was found to be 0.058 nM. In assay [2], the Kd was found to be 0.0505 nM, the koff stood at 0.000177 s⁻¹ and the on-rate constant (kon) was determined as 3.54e+06 M⁻¹ s⁻¹.

B14: AB242 (antibody, V domains shown)
VH: B1 VH with F27G, L29I, K71V
VL: B3 VL
notes: also called hMAK195VH.1 / hMAK195VL.2
Regarding B14, in assay [1], the “TNF-α neutralization assay IC50” value was found to be 25.1 nM. In assay [2], the dissociation constant (Kd) was 0.796 nM, the koff turned out to be 0.00142 s⁻¹ and the kon is 1.79e+06 M⁻¹ s⁻¹.

B15: AB241 (antibody, V domains shown)
VH: B1 VH with F27G, L29I, K71V
VL: B1 VL with A43S
notes: also called hMAK195VH.1 / hMAK195VL.1a
With B15, in assay [1], the “TNF-α neutralization assay IC50” value was found to be 5.33 nM. In addition, in assay [2], the Kd was 0.573 nM, the koff is 0.0013 s⁻¹ and the kon was 2.27e+06 M⁻¹ s⁻¹.

B16: AB253 (antibody, V domains shown)
VH: B2 VH with L29F, K71R
VL: B1 VL with A43S
notes: also called hMAK195VH.2 / hMAK195VL.1a
For the molecule B16, the “TNF-α neutralization assay IC50” value in assay [1] worked out at 0.279 nM. Moreover, in assay [2], the Kd stood at 0.0733 nM, the koff was 0.000221 s⁻¹ and the kon turned out to be 3.02e+06 M⁻¹ s⁻¹.

B17: AB247 (antibody, V domains shown)
VH: B1 VH with I37V, I48L, V67L, T73N, N76S, F78I
VL: B3 VL with A43S, I58V
notes: also called hMAK195VH.1a / hMAK195VL.2a
Consider B17, for which the “TNF-α neutralization assay IC50” value in assay [1] came out at 0.186 nM. In assay [2], the Kd amounted to 0.0996 nM, the koff came out at 0.00026 s⁻¹ and the kon came to 2.62e+06 M⁻¹ s⁻¹.

B18: AB243 (antibody, V domains shown)
VH: B1 VH with F27G, L29I, K71V
VL: B3 VL with A43S, I58V
notes: also called hMAK195VH.1 / hMAK195VL.2a
Consider B18, for which the “TNF-α neutralization assay IC50” value in assay [1] worked out at 50.7 nM. Also, in assay [2], the Kd came out at 1.62 nM, the koff stood at 0.0027 s⁻¹ and the kon stood at 1.72e+06 M⁻¹ s⁻¹.

B19: AB262 (antibody, V domains shown)
VH: B2 VH
VL: B3 VL
notes: also called hMAK195VH.2b / hMAK195VL.2
Regarding B19, the “TNF-α neutralization assay IC50” value in assay [1] came to 0.218 nM. Also, in assay [2], the equilibrium dissociation constant (Kd) was determined as 0.136 nM, the koff was found to be 0.00029 s⁻¹ and the kon was found to be 2.14e+06 M⁻¹ s⁻¹.

B20: AB258 (antibody, V domains shown)
VH: B2 VH with A24V, V48L, S49G, F67L, N76S, L78I
VL: B3 VL
notes: also called hMAK195VH.2a / hMAK195VL.2
Regarding B20, the “TNF-α neutralization assay IC50” value in assay [1] worked out at 0.078 nM. In assay [2], the equilibrium dissociation constant (Kd) was determined as 0.0816 nM, the koff was 0.000244 s⁻¹ and the kon is 3.04e+06 M⁻¹ s⁻¹.

B21: AB255 (antibody, V domains shown)
VH: B2 VH with L29F, K71R
VL: B3 VL with A43S, I58V
notes: also called hMAK195VH.2 / hMAK195VL.2a
Turning to B21, the “TNF-α neutralization assay IC50” value in assay [1] was 0.477 nM. Also, in assay [2], the Kd worked out at 0.148 nM, the koff was found to be 0.000384 s⁻¹ and the kon was 2.62e+06 M⁻¹ s⁻¹.

B22: AB254 (antibody, V domains shown)
VH: B2 VH with L29F, K71R
VL: B3 VL
notes: also called hMAK195VH.2 / hMAK195VL.2
On to B22, for which the “TNF-α neutralization assay IC50” value in assay [1] was 0.799 nM. Besides, in assay [2], the Kd turned out to be 0.12 nM, the koff was 0.000287 s⁻¹ and the kon was found to be 2.4e+06 M⁻¹ s⁻¹.

Values taken from patent US20110250130A1 (AbbVie / Abbott, published 2011).
